This note sets out measurements from patent US20080279864A1.

Like-named read-outs stand apart in the source and are kept apart here. Bounds are passed on as bounds.

Assay [1] concerns the target N-type (CaV2.2) Ca2+ channel (α1B with β2a and α2δ) in HEK293 cells (human; rat) (UniProt Q00975). Nature of the assay: cell-based or functional assay.
The target of assay [2] is NTB(56-95)-pGBKT7 (human). Nature of the assay: yeast two-hybrid auto-activation control (empty pGADT7), filter lift β-galactosidase assay, % of colonies turning blue, mean ± SEM.
The target of assay [3] is NTB(1-44)-pGBKT7 (human). The description is as above.
In assay [4] the target is I-IIB(357-482)-pGBKT7 (I-II loop of α1B fused to the GAL4 binding domain) (human). The description is as above.
Assay [5] concerns the target I-IIC(436-554)-pGBKT7 (I-II loop of α1C fused to the GAL4 binding domain) (rabbit). Nature of the assay: yeast two-hybrid auto-activation control (empty pGADT7), % of colonies surviving on high stringency plates, mean ± SEM.
Assay [6] has as its target NTB(56-95)-pGBKT7 (human). Described as above.
The target of assay [7] is NTB(1-44)-pGBKT7 (human). Described as above.
Assay [8] concerns the target I-IIB(357-482)-pGBKT7 (I-II loop of α1B fused to the GAL4 binding domain) (human). The assay is described as above.
Another assay addresses I-IIC-YFP (rabbit) (UniProt P15381). Briefly: FRET two-hybrid, relative dissociation constant against the NTB-CFP/I-IIB-YFP pair.
In assay [9] the target is I-IIB-YFP (human) (UniProt Q00975). Described as above.
Assay [10] shares this target. Described as above. This is another data set of the same source.
In another assay the target is I-IIC-CFP (rabbit) (UniProt P15381). The assay is described as above.
Chain of I-IIC-CFP (rabbit) (P15381 436-554): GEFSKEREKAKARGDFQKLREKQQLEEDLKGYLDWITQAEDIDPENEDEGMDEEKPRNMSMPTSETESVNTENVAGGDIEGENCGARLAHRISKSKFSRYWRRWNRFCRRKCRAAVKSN

Chain of N-type (CaV2.2) Ca2+ channel (α1B with β2a and α2δ) in HEK293 cells (human; rat) (Q00975 whole entry, stated change not applied, chain 1 of 3, other chains not shown): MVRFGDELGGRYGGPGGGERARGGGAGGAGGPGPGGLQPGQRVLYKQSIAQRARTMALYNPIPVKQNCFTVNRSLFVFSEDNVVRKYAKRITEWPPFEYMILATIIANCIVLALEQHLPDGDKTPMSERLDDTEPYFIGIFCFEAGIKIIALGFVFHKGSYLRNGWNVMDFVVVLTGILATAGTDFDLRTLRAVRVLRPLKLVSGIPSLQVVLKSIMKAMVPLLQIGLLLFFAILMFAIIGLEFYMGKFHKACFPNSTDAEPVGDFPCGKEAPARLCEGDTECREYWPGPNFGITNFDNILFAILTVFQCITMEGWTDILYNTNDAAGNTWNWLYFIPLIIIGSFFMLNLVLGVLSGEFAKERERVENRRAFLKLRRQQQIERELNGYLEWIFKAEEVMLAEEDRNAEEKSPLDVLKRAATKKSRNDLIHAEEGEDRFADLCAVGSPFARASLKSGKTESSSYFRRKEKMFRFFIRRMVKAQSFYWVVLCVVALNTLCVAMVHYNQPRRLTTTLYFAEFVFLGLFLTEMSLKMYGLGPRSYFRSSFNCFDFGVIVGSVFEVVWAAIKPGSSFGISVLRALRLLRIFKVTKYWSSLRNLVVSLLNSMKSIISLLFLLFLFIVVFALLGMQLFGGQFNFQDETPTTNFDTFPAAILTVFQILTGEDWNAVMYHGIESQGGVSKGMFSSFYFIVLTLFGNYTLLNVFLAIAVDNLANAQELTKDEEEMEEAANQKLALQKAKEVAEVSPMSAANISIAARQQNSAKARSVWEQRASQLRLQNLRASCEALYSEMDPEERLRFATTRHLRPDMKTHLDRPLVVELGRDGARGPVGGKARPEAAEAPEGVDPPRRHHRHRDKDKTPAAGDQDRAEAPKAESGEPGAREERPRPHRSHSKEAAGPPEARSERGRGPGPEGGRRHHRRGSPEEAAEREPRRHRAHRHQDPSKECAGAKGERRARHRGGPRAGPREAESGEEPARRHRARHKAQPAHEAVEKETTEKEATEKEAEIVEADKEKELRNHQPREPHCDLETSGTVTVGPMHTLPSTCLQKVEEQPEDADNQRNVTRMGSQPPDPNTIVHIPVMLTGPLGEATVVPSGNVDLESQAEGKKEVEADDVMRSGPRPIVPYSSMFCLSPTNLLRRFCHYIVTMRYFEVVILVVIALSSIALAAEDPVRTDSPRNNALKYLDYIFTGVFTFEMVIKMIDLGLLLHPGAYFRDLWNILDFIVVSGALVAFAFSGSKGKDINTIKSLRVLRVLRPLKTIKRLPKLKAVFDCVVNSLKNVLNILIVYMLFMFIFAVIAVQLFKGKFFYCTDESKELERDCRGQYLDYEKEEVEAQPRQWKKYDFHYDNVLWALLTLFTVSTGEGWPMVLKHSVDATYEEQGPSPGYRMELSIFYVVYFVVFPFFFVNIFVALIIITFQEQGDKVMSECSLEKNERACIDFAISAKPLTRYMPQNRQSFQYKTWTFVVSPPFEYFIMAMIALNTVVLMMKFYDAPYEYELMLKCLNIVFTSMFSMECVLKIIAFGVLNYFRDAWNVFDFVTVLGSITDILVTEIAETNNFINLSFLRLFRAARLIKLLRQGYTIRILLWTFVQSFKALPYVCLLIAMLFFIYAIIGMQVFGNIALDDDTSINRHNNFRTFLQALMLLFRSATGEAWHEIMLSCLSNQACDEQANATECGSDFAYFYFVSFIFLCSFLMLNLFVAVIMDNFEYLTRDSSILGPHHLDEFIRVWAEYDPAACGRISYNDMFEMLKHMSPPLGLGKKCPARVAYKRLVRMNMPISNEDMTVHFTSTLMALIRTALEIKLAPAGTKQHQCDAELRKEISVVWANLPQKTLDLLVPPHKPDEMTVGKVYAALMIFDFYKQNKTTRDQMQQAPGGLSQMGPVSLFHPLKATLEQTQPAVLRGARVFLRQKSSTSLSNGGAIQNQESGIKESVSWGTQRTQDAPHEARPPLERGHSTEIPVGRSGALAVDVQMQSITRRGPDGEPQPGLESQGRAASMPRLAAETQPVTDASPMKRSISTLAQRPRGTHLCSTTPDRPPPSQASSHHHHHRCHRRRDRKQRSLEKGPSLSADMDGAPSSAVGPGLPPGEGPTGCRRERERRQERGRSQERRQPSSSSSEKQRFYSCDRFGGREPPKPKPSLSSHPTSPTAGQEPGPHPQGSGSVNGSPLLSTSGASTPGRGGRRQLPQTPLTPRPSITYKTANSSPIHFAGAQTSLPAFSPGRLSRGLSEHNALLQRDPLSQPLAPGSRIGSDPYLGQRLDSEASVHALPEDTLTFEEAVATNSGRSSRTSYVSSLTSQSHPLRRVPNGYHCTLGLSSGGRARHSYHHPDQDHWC
Chain of N-type (CaV2.2) Ca2+ channel (α1B with β2a and α2δ) in HEK293 cells (human; rat) (P54290 25-1091, stated change not applied, chain 3 of 3, other chains not shown, further chain): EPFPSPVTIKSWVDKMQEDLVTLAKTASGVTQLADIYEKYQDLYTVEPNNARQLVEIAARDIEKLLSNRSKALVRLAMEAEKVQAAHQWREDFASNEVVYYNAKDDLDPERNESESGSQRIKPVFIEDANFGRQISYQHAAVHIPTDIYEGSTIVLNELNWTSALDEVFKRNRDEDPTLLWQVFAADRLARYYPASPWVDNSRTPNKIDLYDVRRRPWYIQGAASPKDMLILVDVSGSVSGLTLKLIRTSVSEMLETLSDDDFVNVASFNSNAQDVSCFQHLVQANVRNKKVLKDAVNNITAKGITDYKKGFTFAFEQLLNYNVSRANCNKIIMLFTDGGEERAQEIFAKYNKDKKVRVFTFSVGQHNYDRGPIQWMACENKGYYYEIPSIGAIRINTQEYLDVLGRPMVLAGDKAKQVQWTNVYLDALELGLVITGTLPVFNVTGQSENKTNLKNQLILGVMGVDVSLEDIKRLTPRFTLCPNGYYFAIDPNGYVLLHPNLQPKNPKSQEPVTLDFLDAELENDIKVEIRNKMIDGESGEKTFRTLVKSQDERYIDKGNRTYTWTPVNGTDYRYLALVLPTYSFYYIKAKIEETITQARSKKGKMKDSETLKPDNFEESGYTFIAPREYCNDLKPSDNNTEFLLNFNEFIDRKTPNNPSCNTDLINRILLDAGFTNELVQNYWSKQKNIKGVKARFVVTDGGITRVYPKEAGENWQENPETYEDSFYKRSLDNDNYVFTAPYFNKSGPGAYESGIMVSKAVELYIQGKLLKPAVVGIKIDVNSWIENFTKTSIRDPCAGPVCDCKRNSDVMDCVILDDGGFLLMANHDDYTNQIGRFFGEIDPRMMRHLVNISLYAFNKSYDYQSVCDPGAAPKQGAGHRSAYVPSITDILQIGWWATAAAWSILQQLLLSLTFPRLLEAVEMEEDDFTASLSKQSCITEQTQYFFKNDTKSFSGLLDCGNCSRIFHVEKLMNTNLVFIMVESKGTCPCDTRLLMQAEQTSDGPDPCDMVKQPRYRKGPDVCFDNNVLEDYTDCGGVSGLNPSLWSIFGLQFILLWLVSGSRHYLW
Chain of I-IIB-YFP (human) (Q00975 357-482): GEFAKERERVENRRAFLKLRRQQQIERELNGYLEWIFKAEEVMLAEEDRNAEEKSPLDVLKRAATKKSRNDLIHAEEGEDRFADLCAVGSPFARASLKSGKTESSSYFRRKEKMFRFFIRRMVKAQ
Chain of I-IIC-YFP (rabbit) (P15381 436-554): as the sequence (P15381 436-554) above

In [1], “Gβγ (G protein β1 and γ2 subunits coexpressed) (from UniProt P62871 2-340; P63212 2-68)” yielded a W(∞), fraction of channels residing in the willing configuration at steady state, 0 mV (compound-state analysis) of 0.6 and a τ, time-constant with which the steady state is achieved, 0 mV (compound-state analysis) of 60 ms.
For the substance “pGADT7 (empty vector; the isolated GAL4 activating domain itself) (from UniProt P04386 768-881)”, the Filter Lift Assay (%) worked out at 32.2% in assay [2], 47.9% with NTB(1-44)-pGBKT7 (human) [3] and 9.18% in assay [4]. For the same substance, the High Stringency (%) in [5] was 8.44%; in assay [6], 2.11%; in the assay with NTB(1-44)-pGBKT7 (human) [7], 0.98%; in [8] it was 18.7%.
On to NTB-CFP (from UniProt Q00975 1-95), for which the Kd,EFF relative to NTB/I-IIB with I-IIC-YFP (rabbit) was greater than 10 fold.
Consider NTC-CFP (from UniProt P15381 1-53), for which the figures for the Kd,EFF relative to NTB/I-IIB with I-IIB-YFP (human) [9] and with I-IIB-YFP (human) [10] were greater than 10 fold and 8 fold, respectively.
Consider NTC-YFP (from UniProt P15381 1-53), for which the Kd,EFF relative to NTB/I-IIB with I-IIC-CFP (rabbit) was greater than 10 fold.
